Assay [1] concerns human lung epithelial cell line A549. The assay can be described thus: IL-33 mRNA induction in A549 cells (real-time PCR). The conditions noted are these: cytokine treatment for 72 hours, normalized to GAPDH. Format: cell-based. The protocol: (§1) FIGS. 18A-18J show the role of IL-33 in the persistence of asthma. FIG. 18A, A549 cells were cultured in medium alone or with IL-33 ([…]), IL-1b (2 ng/mL), IL-4 (10 ng/mL), IL-13 (20 ng/mL), IL-17 (10 ng/mL), TNF (2 ng/mL), IFN-γ (10 ng/mL), or IFN-γ plus TNF (same concentrations) for 72 hours, and then mRNA was analyzed for IL-33 normalized to glyceraldehyde-3-phosphate dehydrogenase (GAPDH). *P<0.05 and **P<0.01. There were 4 to 8 mice per group. FIGS. 18B-18E show the direct effect of IL-33 on airway hyperreactivity, lung ILCs, and autoinduction. […] IN, Intranasal. […] The change in RL with the 25-mg dose of methacholine is shown (n=5 per group). *P<0.05.
Immediately after flexiVent analysis, lung sections were collected in RIPA buffer (50 mmol/L Tris [pH 7.4], 150 mmol/L NaCl, 1 mmol/L EDTA, 1 mmol/L NaF, 1 mmol/L Na3VO4, and 0.1 mmol/L phenylmethylsulfonyl fluoride) containing protease and phosphatase inhibitors and homogenized. Lysed samples were subjected to 10% SDS-PAGE, transferred to a polyvinylidene difluoride membrane, and then immunoblotted with primary antibodies (IL-33 [R&D Systems], tubulin [H-235], and b-actin [Santa Cruz Biotechnology, Dallas, Tex]). After washing, the membranes were incubated with a horseradish peroxidase-conjugated secondary antibody. After additional washing, the membranes were developed with ECL reagent, as previously described (Gorska et al. 2007). A549 cell culture A549 cells were cultured in RPMI in 10% FBS (HyClone; Thermo Scientific, Waltham, Mass.) and 1% penicillin/streptomycin (Gibco, Carlsbad, Calif.) and maintained at 378C in a humidified 5% CO2 incubator. All cytokines were purchased from PeproTech (Rocky Hill, N.J.). In one experiment cells were treated with medium, IL-1b (2 ng/mL), IL-4 (10 ng/mL), IL-13 (20 ng/mL), IL-17 (10 ng/mL), IL-33 (20 ng/mL), TNF (2 ng/mL), IFN-g (10 ng/mL), and TNF (2 ng/mL) plus IFN-g (10 ng/mL) for 72 hours. Cellular RNA was analyzed for mRNA for IL-33 and IL-33R. In a second experiment cells were pretreated for 24 hours with medium, IL-1b (2 ng/mL), IL-4 (10 ng/mL), IL-13 (20 ng/mL), IL-17 (10 ng/mL), TNF (2 ng/mL), or IFN-g (10 ng/mL) before stimulation for 72 hours with IL-33 (20 ng/mL). Cellular RNAwas analyzed for mRNA for IL-33. In a third experiment cells were treated for 24 hours with DRA (5 μg/mL dust mite, 15 μg/mL ragweed, and 5 μg/mL Aspergillus species). Cellular RNA was analyzed for mRNA for IL-33. In a fourth experiment cells were treated for 24 hours with IL-13 (20 ng/mL) and ATP, and the supernatant was collected and analyzed for IL-33 levels by means of ELISA, according to the manufacturer's instructions (R&D systems). […]

Assay [2] relates to MEK^low population. Briefly: Sensitivity of MEK^low CD4 population to dexamethasone-induced cell death. Type of assay: cell-based, human. The conditions noted are these: BAL CD4 T cells, MEK^low (MFI 10). From the text:
FIGS. 5A-5H show the preferential expression of dual-positive TH2/TH17 cells in the BAL MEK^high CD4 T-cell population. FIGS. 5A and 5B, show the sensitivity of MEK^high and MEK^low CD4 populations to dexamethasone-induced cell death. Data are presented as percentages and absolute cell counts (in parentheses) per boxed area. […] FIGS. 5E and 5F show expression of dual-positive TH2/TH17 cells in MEK^high and MEK^low BAL CD4 T-cell populations. FIGS. 5G and 5H show the comparison of expression of dual-positive IL-4/IL-17 (FIG. 5G) and pSTAT3/pSTAT6 (FIG. 5H) cells in MEK^high and MEK^low cell populations.
Patients were allowed to continue their routine medication. Bronchoscopy and BAL were performed, as described previously (Good J T Jr, et al. Refractory asthma: importance of bronchoscopy to identify phenotypes and direct therapy. Chest 2012; 141:599-606). BAL fluid was processed immediately. Cells were isolated by means of centrifugation. Supernatant fluid was placed into aliquots in small samples and frozen. Cells were either cultured or fixed immediately in 4% paraformaldehyde and processed for flow cytometry. […]
Cells were stained with the following antibodies. […] This was detected with an Alexa Fluor 488-labeled anti-rabbit secondary antibody. […] Flow cytometric data were analyzed with FlowJo software (Tree Star, Ashland, Ore). […]

The test system of assay [3] is A549 cells. The assay can be described thus: IL-33 autoinduction in A549 cells after cytokine pretreatment. The conditions noted are these: pretreated 24 hours with cytokine, then 72 hours with IL-33 (20 ng/mL). Format: cell-based, human. On the procedure: as §1
(§2) Immediately after flexiVent analysis, lung sections were collected in RIPA buffer (50 mmol/L Tris [pH 7.4], 150 mmol/L NaCl, 1 mmol/L EDTA, 1 mmol/L NaF, 1 mmol/L Na3VO4, and 0.1 mmol/L phenylmethylsulfonyl fluoride) containing protease and phosphatase inhibitors and homogenized. […] Cellular RNA was analyzed for mRNA for IL-33 and IL-33R. […] Cellular RNAwas analyzed for mRNA for IL-33. […] Cellular RNA was analyzed for mRNA for IL-33. In a fourth experiment cells were treated for 24 hours with IL-13 (20 ng/mL) and ATP, and the supernatant was collected and analyzed for IL-33 levels by means of ELISA, according to the manufacturer's instructions (R&D systems). […]

In assay [4] the test system is A549 cells. Briefly: Cytokine induction of IL-33R mRNA in A549 cells. Type of assay: cell-based, human. The conditions noted are these: cytokine treatment for 72 hours. The protocol:
as §1, §2

Assay [5] has as its system C57Bl/6 mice. Briefly: Intranasal IL-33 administration, outcomes after 15 days. Format: in vivo, mouse. On the procedure: as §1
FIG. 27A, Effect of IL-13 on IL-33 secretion. A549 cells were treated overnight with medium or IL-13 (20 ng/mL) and ATP ([…]), and the released IL-33 was measured by using ELISA (n=6). *P=0.04. FIGS. 27B-27E, Direct effect of IL-33 on airway hyperreactivity and lung ILCs. C57Bl/6 mice were treated intranasally for 3 consecutive days with 400 ng per dose of IL-33. Outcome measures were evaluated 15 days after final exposure.
Measurement methodologies have been explained in depth in Goplen et al. (Goplen N, et al. Combined sensitization of mice to extracts of dust mite, ragweed, and Aspergillus species breaks through tolerance and establishes chronic features of asthma. J Allergy Clin Immunol 2009; 123:925-32.e11). Briefly, mice were anesthetized with ketamine (180 mg/kg), xylazine (9 mg/kg), and acepromazine (4 mg/kg). After loss of footpad pinch reflex, a tracheotomy was performed, and the mouse was attached with an 18-gauge cannula to a small-animal ventilator with a computer-controlled piston (FlexiVent; SCIREQ, Montreal, Quebec, Canada). Mice were ventilated at a frequency of 90 breaths/min with a tidal volume of 20 mL/kg during nebulization and otherwise with a frequency of 150 breaths/min with a tidal volume of 20 mL/kg while breathing against an artificial positive endexpiratory pressure of 2.5 to 3 cm H2O. Lungs were inflated to total lung capacity twice to standardize volume history. Resistance measurements were then taken to establish baselines for total lung resistance and at each methacholine dose. Group averages were expressed as fold increases in baseline resistance (means+SEMs).
Inflammation was quantified by using Metamorph image acquisition and analysis software on H&E-stained lung sections at 20× magnification, as described in Goplen et al. 2009. Airway epithelial hypertrophy and peribronchial smoothmuscle hypertrophyweremeasured as the area of epithelial or smoothmuscle per circumference of airway basement membrane. Airway inflammation was measured as the area of inflammatory infiltrates as a percentage of the total field. A minimum of 5 airways per mouse and 5 to 9 mice per group were quantified. Images were acquired on a Nikon Eclipse TE2000-U microscope by using 320 dry lenses at room temperature through a Diagnostics Instruments camera model #4.2 with Spot software 5.0 (Diagnostic Instruments, Inc, Sterling Heights, Mich.). H&E sections were mounted with Permount medium (Thermo Fisher Scientific, Inc, Waltham, Mass.). Images were adjusted for brightness and contrast to improve viewing.
Lungs were perfused with saline, and single-cell suspensions of lung cells were acquired by using mechanical mincing of lungs followed by digestion at 37° C. for 45 minutes in RPMI with 10% FBS, 1% penicillin/streptomycin, and collagenaseA (1 mg/mL). Cell suspensions were agitated at room temperature for 10 minutes in RPMI with 100 U/mL DNAse I before filtration through 40-mm filters and red blood cell lysis. Single-cell suspensions were subsequently fixed in 4% paraformaldehyde for flow cytometric analysis.
Mouse ILC2s. For mouse flow cytometric staining, all conjugate antibodies were purchased from BioLegend (San Diego, Calif.), unless otherwise stated. Mouse lung digest cells were fixed with 4% paraformaldehyde and incubated with 10% donkey serum and 1% 2.4G2. […]

[6] abbreviates: intranasal, 400 ng per dose for 3 days, 15 days after.
Where [7] appears, read: intranasal, 3 consecutive days, 400 ng per dose, 15 days after.

For the molecule “IL-17: cytokine purchased from PeproTech, 10 ng/mL on A549 cells”, the “induction of IL-33 mRNA” value in assay [1] is listed as “directly induced IL-33”.
With `C[C@@H]1C[C@H]2[C@@H]3CCC4=CC(=O)C=C[C@]4(C)[C@@]3(F)[C@@H](O)C[C@]2(C)[C@@]1(O)C(=O)CO` [Dexamethasone, dexamethasone], the “cell count decrease after dexamethasone treatment, MEK^low CD4 T cells” value in assay [2] came to 2.7 fold.
“IL-113: probably IL-1b cytokine (PeproTech, 2 ng/mL on A549 cells), misprinted”: in assay [3], the “IL-33 autoinduction after preincubation with cytokine” value is listed as “unable to facilitate IL-33 autoinduction”. Besides, the “induction of IL-33R mRNA” value in assay [4] is recorded as “strong inducer of IL-33R”.

B1: IL-33: interleukin-33 cytokine, given intranasally to mice or added to A549 cells (protein, UniProt Q8BVZ5 1-266, looked up)
Interleukin-33: MRPRMKYSNSKISPAKFSSTAGEALVPPCKIRRSQQKTKEFCHVYCMRLRSGLTIRKETSYFRKEPTKRYSLKSGTKHEENFSAYPRDSRKRSLLGSIQAFAASVDTLSIQGTSLLTQSPASLSTYNDQSVSFVLENGCYVINVDDSGKDQEQDQVLLRYYESPCPASQSGDGVDGKKLMVNMSPIKDTDIWLHANDKDYSVELQRGDVSPPEQAFFVLHKKSSDFVSFECKNLPGTYIGVKDNQLALVEEKDESCNNIMFKLSKI
As for B1, in assay [1], the “induction of IL-33 mRNA” value is listed as “capable of autoinduction”. Further, the “persistence of airway hyperreactivity and airway inflammation” value in assay [5] (after intranasal IL-33, 400 ng per dose for 3 days) amounted to 2 weeks. Moreover, in assay [5] (setting [6]), the “IL-51 ILC2 numbers” value is given as “increased”; the “number of lung IL-131 ILC2s” value is “increased”; the “total number of IL-51 and IL-131 lung cells” value is listed as “increased”. Further, in assay [5] (setting [7]), the airway hyperreactivity result is reported as “induced airway hyperreactivity” and the airway inflammation entry is “mild airway inflammation”. For the same molecule, the “IL-33 production (autoinduction) in lung cells” value in assay [5] (pro-surfactant protein C-positive epithelial cells and CD11b+ hematopoietic cells, 2 weeks after intranasal IL-33) was “persistent IL-33 production was observed”.

B2: IL-4: cytokine purchased from PeproTech, 10 ng/mL on A549 cells (protein, UniProt P05112 25-153, looked up)
Interleukin-4: HKCDITLQEIIKTLNSLTEQKTLCTELTVTDIFAASKNTTEKETFCRAATVLRQFYSHHEKDTRCLGATAQQFHRHKQLIRFLKRLDRNLWGLAGLNSCPVKEANQSTLENFLERLKTIMREKYSKCSS
With B2, the “induction of IL-33 mRNA” value in assay [1] is listed as “directly induced IL-33”.

(Values after patent US20190041401A1, “Methods of Treating Subjects having Severe and/or Persistent Asthma” (National Jewish Health, priority 2015, published 2019).)
